In patent US20200400675A1 (ECS PROGASTRIN, published 2020):

Biological target: T1, human progastrin (human, UniProt P01350 22-101)
T1 construct: also called hPG; PG
T1 sequence: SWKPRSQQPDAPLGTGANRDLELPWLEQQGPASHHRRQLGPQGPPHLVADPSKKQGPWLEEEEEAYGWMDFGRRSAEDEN
Assay: epitope mapping (no details given)

B1: mAb13 (hybridoma 2C6C3C7) (antibody, V domains shown)
VH: EVQLVESGGGLVQPGGSLKLSCAASGFIFSSYGMSWVRQSPDRRLELVASINTFGDRTYYPDSVKGRFTISRDNAKNTLYLQMTSLKSEDTAIYYCARGTGTYWGQGTTLTVSS
VL: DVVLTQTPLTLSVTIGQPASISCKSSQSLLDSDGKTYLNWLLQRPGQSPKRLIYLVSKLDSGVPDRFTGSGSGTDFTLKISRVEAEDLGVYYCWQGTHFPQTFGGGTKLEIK
notes: Murine monoclonal antibody
B1: binds.

B2: mAb3 (hybridoma 6B5B11C10) (antibody, V domains shown)
VH: EVQLQQSGTVLARPGASVKMSCKASGYIFTSYWVHWVKQRPGQGLEWIGGFYPGNSDSRYNQKFKGKATLTAVTSASTAYMDLSSLTNEDSAVYFCTRRDSPQYWGQGTTLTVSS
VL: DVLMTQTPLSLPVSLGDQASISCRSSQSIVHSNGNTYLEWYLQKPGQSPKLLIYKVSNRFSGVPDRFSGSGSGTDFTLKISRLEAEDLGVYYCFQGSHVPFTFGGGTKLEIK
notes: Murine monoclonal antibody
B2: binds.

B3: mAb19 (hybridoma 1B3B4F11) (antibody, V domains shown)
VH: DVQLQESGPGLVKPSQSLSLTCTVTGYSITSDYAWNWIRQFPGNKLEWMGYISFSGYTSYNPSLKSRISVTRDTSRNQFFLQLTSVTTEDTATYYCAREVNYGDSYHFDYWGQGTIVTVSS
VL: QLALTQSSSASFSLGASAKLTCTLSSQHRTYTIEWYQQQSLKPPKYVMEVKKDGSHSTGHGIPDRFSGSSSGADRYLSISNIQPEDEAIYICGVGDAIKGQSVFVFGGGTKVTVL
notes: Murine monoclonal antibody
B3: binds.

B4: mAb16 (hybridoma 1E9D9B6) (antibody, V domains shown)
VH: QVQLQQSGAELVKPGASVKLSCKASGYTFTSYYMYWVKQRPGQGLEWIGEINPSNGGTNFNEKFKSKATLTVDKSSSTAYMQLSSLTSEDSAVYYCTRGGYYPFDYWGQGTTLTVSS
VL: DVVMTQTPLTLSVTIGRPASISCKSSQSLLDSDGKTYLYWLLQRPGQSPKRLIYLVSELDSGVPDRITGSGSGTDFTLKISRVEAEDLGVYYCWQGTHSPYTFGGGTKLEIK
notes: Murine monoclonal antibody
B4: binds.

B5: mAb4 (hybridoma 20D2C3G2) (antibody, V domains shown)
VH: QVQLQQSGAELMKPGASVKISCKATGYTFSSSWIEWLKQRPGHGLEWIGEFLPGSGSTDYNEKFKGKATFTADTSSDTAYMLLSSLTSEDSAVYYCATDGNYDWFAYWGQGTLVTVSA
VL: DLVMTQTPLSLPVSLGDQASISCRSSQSLVHSSGVTYLHWYLQKPGQSPKLLIYKVSNRFSGVPDRFSGSGSGTDFTLKISRVEAEDLGVYFCSQSTHVPPTFGSGTKLEIK
notes: Murine monoclonal antibody
B5: binds.
